Experimental data taken from patent US20130085101A1.

Molecular target: human Type 1 IGF receptor (human) (UniProt P08069)
Assay: competitive displacement of 125I-Tyr31-IGF-I; FLAG-tagged IGF-1R captured on anti-FLAG plate

Chain of human Type 1 IGF receptor (human) (P08069 31-1367 limits assumed): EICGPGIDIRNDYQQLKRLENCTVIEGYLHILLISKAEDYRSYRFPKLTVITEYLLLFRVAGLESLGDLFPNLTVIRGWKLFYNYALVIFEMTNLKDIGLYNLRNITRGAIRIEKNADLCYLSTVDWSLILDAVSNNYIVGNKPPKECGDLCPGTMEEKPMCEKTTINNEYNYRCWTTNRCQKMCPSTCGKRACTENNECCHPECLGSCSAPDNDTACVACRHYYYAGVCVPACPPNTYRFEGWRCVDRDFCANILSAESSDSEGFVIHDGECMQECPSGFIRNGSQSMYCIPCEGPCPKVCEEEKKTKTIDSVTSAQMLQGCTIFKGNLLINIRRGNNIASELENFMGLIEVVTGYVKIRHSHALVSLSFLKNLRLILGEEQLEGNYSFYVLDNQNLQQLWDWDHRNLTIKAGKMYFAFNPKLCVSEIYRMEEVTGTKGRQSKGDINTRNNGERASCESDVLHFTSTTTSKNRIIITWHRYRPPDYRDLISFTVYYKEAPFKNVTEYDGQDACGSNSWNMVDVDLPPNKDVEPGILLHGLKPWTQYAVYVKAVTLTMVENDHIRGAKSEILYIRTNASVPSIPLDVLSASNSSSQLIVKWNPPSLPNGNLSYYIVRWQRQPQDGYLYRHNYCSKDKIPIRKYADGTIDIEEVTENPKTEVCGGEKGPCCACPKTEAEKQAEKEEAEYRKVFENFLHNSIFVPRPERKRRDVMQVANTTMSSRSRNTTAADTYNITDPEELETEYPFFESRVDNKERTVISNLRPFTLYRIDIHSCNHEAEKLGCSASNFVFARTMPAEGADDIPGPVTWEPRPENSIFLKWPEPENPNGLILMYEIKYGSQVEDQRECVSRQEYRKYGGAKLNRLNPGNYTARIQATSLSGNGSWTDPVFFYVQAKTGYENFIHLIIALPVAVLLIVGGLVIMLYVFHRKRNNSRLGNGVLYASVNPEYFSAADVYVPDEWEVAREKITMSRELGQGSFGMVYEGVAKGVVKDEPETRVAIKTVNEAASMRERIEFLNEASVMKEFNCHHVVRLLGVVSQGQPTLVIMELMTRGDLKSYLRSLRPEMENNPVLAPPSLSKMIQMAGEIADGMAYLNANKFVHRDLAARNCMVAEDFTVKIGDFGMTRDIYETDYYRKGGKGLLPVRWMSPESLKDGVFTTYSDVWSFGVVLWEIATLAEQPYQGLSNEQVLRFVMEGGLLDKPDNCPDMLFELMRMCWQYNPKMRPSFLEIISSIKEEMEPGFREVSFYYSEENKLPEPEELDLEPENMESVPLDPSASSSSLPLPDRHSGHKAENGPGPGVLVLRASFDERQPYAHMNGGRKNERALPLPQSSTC

relative affinity (percent (of IGF-I for IGF-1R)): 0.27
Substance: lispro-insulin (ligand; other documents disagree on this pair)
